Biological target: Cy3B-SSB (W88C SSB labeled with Cy3B, one per monomer) W89C (UniProt P0AGE0)
Test: bulk fluorescence

Substance: ssDNA (unspecified, bulk assay)
- Kd: < 2.5 nM
